According to patent publication US20220332791A1 (ALIVEGEN, published 2022):
Changes are numbered by the printed parent chain.

B1: wild-type ActRIIB-ECD-Fc fusion protein (Fc fusion)
chain: ETRECIYYNANWELERTNQSGLERCEGEQDKRLHCYASWRNSSGTIELVKKGCWLDDFNCYDRQECVATEENPQVYFCCCEGNFCNERFTHLPEAGGPEVTYEPPPTAPTGGGGSESKYGPPCPPCP
notes: also called WT ActRIIB-Fc; WT; not shown: human Fc domain
B2: hybrid ActRIIB ligand trap protein AG-0003 (SEQ ID NO: 5) (Fc fusion, not shown: a dimerising Fc or GST)
chain: B1 chain with F58I, Q64T, E65D, A68E, T69K, E70K, E71D, N72S, Q74E
B3: hybrid ActRIIB ligand trap protein AG-0005 (SEQ ID NO: 7) (Fc fusion, not shown: a dimerising Fc or GST)
chain: B1 chain with Q64T, E65D, A68E, T69K, E70K, E71D, N72S
B4: hybrid ActRIIB ligand trap protein AG-0006 (SEQ ID NO: 8) (Fc fusion)
chain: B1 chain with Q64T, E65D, A68E, T69K, E70K, E71D, N72S, Q74E
notes: not shown: human Fc domain
B5: hybrid ActRIIB ligand trap protein AG-0007 (SEQ ID NO: 9) (Fc fusion)
chain: B1 chain with A68E, T69K, E70K, E71D, N72S, Q74E
notes: not shown: human Fc domain
B6: hybrid ActRIIB ligand trap protein AG-0008 (SEQ ID NO: 10) (Fc fusion)
chain: B1 chain with A68E, T69K, E70K, E71D, N72S
notes: not shown: human Fc domain
B7: hybrid ActRIIB ligand trap protein AG-0014 (SEQ ID NO: 16) (Fc fusion)
chain: B1 chain with E26Y, E28D, Q29K, L33R
notes: also called Hybrid Trap B; not shown: human Fc domain
B8: hybrid ActRIIB ligand trap protein AG-0027 (SEQ ID NO: 29) (Fc fusion)
chain: B1 chain with E28D, F58I, E70K
notes: also called Hybrid Trap A; Hybrid Trap; not shown: human Fc domain

Columns and labels:
myostatin [1] = target: T1, myostatin (UniProt O14793 267-375); assay: KinExA, myostatin-coupled Sepharose beads, trap held constant and ligand titrated
T1 construct: also called GDF-8; recombinant myostatin
T1 sequence (looked up): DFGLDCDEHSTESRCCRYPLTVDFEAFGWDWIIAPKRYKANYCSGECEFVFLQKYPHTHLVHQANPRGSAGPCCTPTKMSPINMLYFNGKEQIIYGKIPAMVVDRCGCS
Procedure: (§1) AG-0014 and AG-0027 were analyzed by kinetic exclusion assay (KinExA) (Sapidyne Instruments, Inc.). 20-30 μg/ml of myostatin, activin A or BMP-9 was separately coupled to NHS-Activated Sepharose 4 Fast Flow beads (GE Healthcare) using experimental procedures recommended by Sapidyne Instruments. The concentration for each hybrid ActRIIB ligand trap protein was held constant as the ligand was titrated in a 2.5-fold serial dilution. Solutions were allowed to reach equilibrium by incubation at room temperature up to 24 hours and subsequently passed through a flow cell pre-packed with ligand-coated Sepharose beads on a KinExA 3000 machine (Sapidyne Instruments). The free hybrid ActRIIB ligand trap proteins captured on the beads was detected by Alexa Fluor 647-labeled goat anti-human-Fc antibody (Jackson ImmunoResearch Laboratories, Inc.). The ligand binding affinity values (KD) were calculated using the KinExA Pro software (Sapidyne Instruments).

BMP9 [2] = target: T2, BMP9 (UniProt Q9UK05 320-429); assay: Octet Red BLI, trap on AHC biosensors, 10 nM BMP9; legend: +++ KD < 10^-8M
T2 construct: also called GDF-2
T2 sequence (looked up): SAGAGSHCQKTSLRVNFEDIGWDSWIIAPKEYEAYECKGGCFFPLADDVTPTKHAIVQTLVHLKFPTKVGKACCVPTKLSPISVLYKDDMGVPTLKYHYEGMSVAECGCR
Procedure: (§2) Myostatin and BMP9 binding activities of various hybrid ActRIIB ligand trap proteins were initially analyzed using Octect Red (ForteBio). Purified proteins or conditioned media were individually loaded to AHC biosensors with maximum loading. Following a baseline washing phase, the sensors were exposed to 10 nM myostatin or BMP9, respectively, for an association step followed by a dissociation step. All experiments were performed with shaking at 1,000 rpm. Binding activity was analyzed using ForteBio's software with KD being calculated using the ratio Kd/Ka.

myostatin [3] = target: T1, myostatin; assay: Octet Red BLI, trap on AHC biosensors, 10 nM myostatin; legend: +++ KD < 10^-8M
Procedure: as §2

BMP9 [4] = target: T2, BMP9; assay: cell-based or functional assay
activin B = target: T3, activin B (UniProt P09529 293-407); assay: cell-based or functional assay
T3 sequence (looked up): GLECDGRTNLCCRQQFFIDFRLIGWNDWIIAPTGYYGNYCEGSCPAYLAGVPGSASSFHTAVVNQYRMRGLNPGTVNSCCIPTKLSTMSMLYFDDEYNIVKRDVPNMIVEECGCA

activin A [5] = target: T4, activin A (UniProt P08476 311-426); assay: cell-based or functional assay
T4 sequence (looked up): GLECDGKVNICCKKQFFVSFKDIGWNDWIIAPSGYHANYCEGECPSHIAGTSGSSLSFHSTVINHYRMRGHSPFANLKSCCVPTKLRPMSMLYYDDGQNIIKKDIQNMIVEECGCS

myostatin [6] = target: T1, myostatin; assay: cell-based or functional assay
activin A [7] = target: T4, activin A; assay: cell-based or functional assay; remark: listed apart in the source
activin A [8] = target: T4, activin A; assay: KinExA, activin A-coupled Sepharose beads, trap held constant and ligand titrated
Procedure: as §1

BMP9 [9] = target: T2, BMP9; assay: cell-based or functional assay; remark: listed apart in the source
BMP9 [10] = target: T2, BMP9; assay: KinExA, BMP-9-coupled Sepharose beads, trap held constant and ligand titrated
Procedure: as §1

myostatin [11] = target: T1, myostatin; assay: cell-based or functional assay; remark: listed apart in the source
BMP9 [12] = target: T2, BMP9; assay: Octet Red BLI, trap on AHC biosensors, 10 nM BMP9; legend: ++ KD: 10^-6 - 10^-7M
Procedure: as §2

BMP9 [13] = target: T2, BMP9; assay: Octet Red BLI, trap on AHC biosensors, 10 nM BMP9; legend: + KD 10^-4 - 10^-6M
Procedure: as §2

| Binder | Kd (myostatin [1]) | KD (myostatin [3]) | Cell-Based IC50 (nM) Against Activin B, C2C12-CAGA-luc reporter (activin B) | Cell-Based IC50 (nM) Against Activin A, C2C12-CAGA-luc reporter (activin A [5]) | Cell-Based IC50 (nM) Against Myostatin, C2C12-CAGA-luc reporter (myostatin [6]) | IC50 (read off the curve) (activin A-induced luciferase, C2C12-CAGA-luc reporter cells) (activin A [7]) | Kd (activin A [8]) | KD (BMP9 [13]) | further results |
| --- | --- | --- | --- | --- | --- | --- | --- | --- | --- |
| B1 | 0.00506 nM | < 10 nM | 1.04 nM | 1.27 nM | 1.24 nM | ~4 nM | 0.00138 nM | – | KD (BMP9 [2]): < 10 nM; Cell-Based IC50 (nM) Against BMP9, C2C12-BRE-luc reporter (BMP9 [4]): 3.4 nM; IC50 (read off the curve) (BMP9-induced luciferase, C2C12-BRE-luc reporter cells) (BMP9 [9]): ~10 nM; Kd (BMP9 [10]): 0.00425 nM |
| B2 | – | < 10 nM | – | – | – | ~10 nM | – | – | IC50 (read off the curve) (myostatin-induced luciferase, C2C12-CAGA-luc reporter cells) (myostatin [11]): ~0.4 nM; KD (BMP9 [12]): 100 to 1000 nM |
| B3 | – | < 10 nM | – | – | – | ~10 nM | – | 1000 to 100000 nM | IC50 (read off the curve) (myostatin-induced luciferase, C2C12-CAGA-luc reporter cells) (myostatin [11]): ~1 nM |
| B4 | – | < 10 nM | – | – | – | – | – | 1000 to 100000 nM | – |
| B5 | – | < 10 nM | – | – | – | – | – | 1000 to 100000 nM | – |
| B6 | – | < 10 nM | – | – | – | – | – | – | KD (BMP9 [12]): 100 to 1000 nM |
| B7 | 0.00875 nM | < 10 nM | 2.1 nM | 1.15 nM | 0.95 nM | – | 0.000357 nM | – | – |
| B8 | 0.00787 nM | < 10 nM | 1.3 nM | 1.62 nM | 1.14 nM | – | 0.00109 nM | – | – |
